tested on: Escherichia coli TOP10; assay: shrunken log2 fold change of peptide-encoding DNA abundance (4.5 h post-induction vs induction); higher = less antimicrobial activity (less host growth inhibition); conditions: time post-induction: 4.5 h; library: site-saturation at positions 5, 18, 19, 20
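Also: peptides expressed intracellularly from a pBAD plasmid library in pooled LB shake-flask culture, induced with 0.3% L-arabinose, DNA abundance read by NGS, three biological replicates, DESeq2 with apeglm shrinkage.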

| Sequence | shrunken log2 fold change |
| --- | --- |
| RRIRERPPRLPRPRPRPWRCPRP | -0.0332 |
| RRIRQRPPRLPRPRPRPNKIPRP | -0.388 |
| RRIRPRPPRLPRPRPRPRQMPRP | 0.184 |
| RRIRLRPPRLPRPRPRPHRTPRP | -0.0946 |
| RRIRDRPPRLPRPRPRPIIYPRP | -0.313 |
| RRIRFRPPRLPRPRPRPEDYPRP | 0.0145 |
| RRIRLRPPRLPRPRPRPHGLPRP | 0.123 |
| RRIRIRPPRLPRPRPRPMVHPRP | -0.0468 |
| RRIRHRPPRLPRPRPRPCLFPRP | -0.229 |
| RRIRERPPRLPRPRPRPEHCPRP | -0.014 |
| RRIRGRPPRLPRPRPRPRANPRP | 0.816 |
| RRIRGRPPRLPRPRPRPDFKPRP | 0.386 |
| RRIRSRPPRLPRPRPRPDKGPRP | -0.108 |
| RRIRSRPPRLPRPRPRPKTGPRP | -0.071 |
| RRIRMRPPRLPRPRPRPPYKPRP | -0.163 |
| RRIRARPPRLPRPRPRPSLFPRP | 0.349 |
| RRIRHRPPRLPRPRPRPLSGPRP | -0.35 |
| RRIRIRPPRLPRPRPRPMNYPRP | -0.0706 |
| RRIRVRPPRLPRPRPRPMGSPRP | -0.000992 |
| RRIRERPPRLPRPRPRPPQNPRP | 0.232 |
| RRIRVRPPRLPRPRPRPTSDPRP | 0.431 |
| RRIRNRPPRLPRPRPRPMRMPRP | -0.00372 |
| RRIRSRPPRLPRPRPRPRQGPRP | 0.185 |
| RRIRVRPPRLPRPRPRPKAMPRP | 0.0194 |
| RRIRMRPPRLPRPRPRPYQSPRP | -0.118 |

| Sequence | shrunken log2 fold change |
| --- | --- |
| RRIRCRPPRLPRPRPRPHIMPRP | -1.4 |
| RRIRERPPRLPRPRPRPLSTPRP | -0.48 |
| RRIRPRPPRLPRPRPRPHKPPRP | -0.0376 |
| RRIRWRPPRLPRPRPRPWGRPRP | 0.0619 |
| RRIRGRPPRLPRPRPRPMQVPRP | 0.162 |
| RRIRKRPPRLPRPRPRPDWQPRP | -0.0216 |
| RRIRQRPPRLPRPRPRPHRPPRP | 0.0757 |
| RRIRMRPPRLPRPRPRPPKLPRP | 0.343 |
| RRIRTRPPRLPRPRPRPGHLPRP | -0.377 |
| RRIRVRPPRLPRPRPRPLRPPRP | 0.97 |
| RRIRCRPPRLPRPRPRPIMQPRP | -0.193 |
| RRIRCRPPRLPRPRPRPKETPRP | -0.0766 |
| RRIRARPPRLPRPRPRPERKPRP | 1.16 |
| RRIRIRPPRLPRPRPRPGFGPRP | 0.28 |
| RRIRERPPRLPRPRPRPDQTPRP | -0.00664 |
| RRIRCRPPRLPRPRPRPCIVPRP | -0.718 |
| RRIRRRPPRLPRPRPRPNILPRP | -0.0406 |
| RRIRNRPPRLPRPRPRPHGCPRP | -0.0193 |
| RRIRVRPPRLPRPRPRPSTCPRP | -0.325 |
| RRIRQRPPRLPRPRPRPHWCPRP | 0.1 |
| RRIRARPPRLPRPRPRPVSNPRP | 0.296 |
| RRIRQRPPRLPRPRPRPLACPRP | -0.231 |
| RRIRPRPPRLPRPRPRPHLPPRP | -0.126 |
| RRIRSRPPRLPRPRPRPPEAPRP | 0.854 |
| RRIRYRPPRLPRPRPRPMMAPRP | -0.146 |

| Sequence | shrunken log2 fold change |
| --- | --- |
| RRIRTRPPRLPRPRPRPMCEPRP | 0.0422 |
| RRIRCRPPRLPRPRPRPHMIPRP | -0.0573 |
| RRIRLRPPRLPRPRPRPGFNPRP | -0.0341 |
| RRIRPRPPRLPRPRPRPQNRPRP | -0.598 |
| RRIRARPPRLPRPRPRPFLGPRP | 0.0605 |
| RRIRWRPPRLPRPRPRPMWRPRP | 0.328 |
| RRIRFRPPRLPRPRPRPFNRPRP | 0.0118 |
| RRIRERPPRLPRPRPRPEDPPRP | -0.134 |
| RRIRPRPPRLPRPRPRPPTWPRP | 0.302 |
| RRIRSRPPRLPRPRPRPYHQPRP | -0.203 |
| RRIRYRPPRLPRPRPRPTSFPRP | -0.255 |
| RRIRLRPPRLPRPRPRPHKRPRP | 0.0273 |
| RRIRYRPPRLPRPRPRPKLCPRP | -0.0301 |
| RRIRDRPPRLPRPRPRPICWPRP | 0.318 |
| RRIRMRPPRLPRPRPRPETDPRP | 1.77 |
| RRIRKRPPRLPRPRPRPAHSPRP | 0.0695 |
| RRIRPRPPRLPRPRPRPFTQPRP | -0.0301 |
| RRIRSRPPRLPRPRPRPWEPPRP | -0.029 |
| RRIRQRPPRLPRPRPRPDDSPRP | -0.139 |
| RRIRRRPPRLPRPRPRPSIMPRP | -0.213 |
| RRIRFRPPRLPRPRPRPGAAPRP | 0.517 |
| RRIRQRPPRLPRPRPRPNWVPRP | 0.00521 |
| RRIRQRPPRLPRPRPRPRHCPRP | -0.0425 |
| RRIRKRPPRLPRPRPRPHAGPRP | 0.143 |
| RRIRTRPPRLPRPRPRPIDMPRP | 0.00748 |
